# Test results reported in the supplement of paper PMC10126150.
# ± gives the standard deviation of the averaged measurements.
# Tested on: ATP
# Experiment: switch fluorescence ratio, 500 uM ATP over buffer (Cy3 cluster intensity, sum of 5 cycles each) (fold (ratio)); higher = stronger signal-on switching upon ATP binding; sequences stand for … in TCGTCGGCAGCGTCAGATGTGTATAAGAGACAGTTTTTTTTTTTTTTTTTTTTTTTTT…TC
# Settings: aptamer strand: ATP DNA aptamer (quencher-CACCTGGGGGAGTATTGCGGAGGAAGG + anchor), 100 nM annealed; ATP concentration: 500 uM
# How it was run: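 Five buffer/ATP imaging cycles were run on Cy3-labelled switching-strand clusters on a modified Illumina MiSeq flow-cell, with NaOH stripping and re-annealing between cycles. In each cycle, clusters annealed to 100 nM quencher-labelled ATP aptamer were imaged in selection buffer, then after 15 min with 500 uM ATP at 22 °C. Per cluster, the fluorescence ratio is summed target-cycle over summed buffer-cycle Cy3 intensity, averaged per switch-domain sequence. Only clusters within 100-1000 RFU were kept.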
# 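Also: ATP exposure 15 min at 22 °C before imaging.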
row,Sequence,switch fluorescence ratio
1,TCACTGTTGT,0.993 ± 0.032
2,TTCCGGTGAA,1.0572 ± 0.00078
3,TCGATTTGGC,1 ± 0.045
4,GAGTATGGGT,1 ± 0.021
5,TTTCTTCCCT,1.13 ± 0.11
6,AATGGAGTGG,0.997 ± 0.028
7,TTTTAAAGAG,0.97 ± 0.024
8,TGCCAGTGGG,1.04 ± 0.068
9,TATTGGGAAA,1.06 ± 0.045
10,GGTGTATGGG,1.01 ± 0.014
11,GTTGGGACTG,1 ± 0.055
12,GATTCCAAAA,0.975 ± 0.011
13,CTGGGGTTCG,1.0213 ± 0.00034
14,TTTATGTCTA,1.02 ± 0.024
15,AATATCGGGA,0.983 ± 0.038
16,AGTAACGCGG,0.979 ± 0.014
17,GTACGAAGTT,0.973 ± 0.013
18,ATTGGTTCCA,1.03 ± 0.041
19,AGGGCAGTTG,0.97 ± 0.024
20,GTTTCTTGGG,0.995 ± 0.056
21,ACGCTTTAGT,1.01 ± 0.036
22,AAAATGGGTA,0.986 ± 0.034
23,TGTTGAGTTG,0.9749 ± 0.0031

row,Sequence,switch fluorescence ratio
1,GGGGGTGGAA,0.97 ± 0.028
2,TTAAAACTAT,1.015 ± 0.0089
3,TCGCTTGGGA,1.03 ± 0.017
4,TAAGTATGAC,0.982 ± 0.032
5,GTTTTAAAGG,0.984 ± 0.031
6,GGGGGGCGAT,1.03 ± 0.049
7,TCAGTAACGC,1.05 ± 0.013
8,TACACTGAAT,1.01 ± 0.038
9,GATCGGGACT,0.9826 ± 0.0047
10,GAACGGGGCG,1.01 ± 0.099
11,TACCAGTCGC,1.03 ± 0.026
12,TTAATAAGTG,0.964 ± 0.028
13,GGCTCAATGG,1.04 ± 0.031
14,GCTGGGTGCA,0.9719 ± 0.0016
15,ATTTCAAATA,1.01 ± 0.043
16,CAGAGGGGTG,1.05 ± 0.012
17,AGATATTACG,1.03 ± 0.037
18,TAGGAGAGAC,0.998 ± 0.057
19,ATGGGTCACG,0.987 ± 0.012
20,CCTTTTTATT,0.9882 ± 0.0064
21,GTGGGTGAC,0.977 ± 0.049
22,GGTTTTTGAG,0.9564 ± 0.0045
23,GCTACCAAGC,1.07 ± 0.025

row,Sequence,switch fluorescence ratio
1,CAATGTAGGT,1.02 ± 0.02
2,AATATCTCTG,1.02 ± 0.03
3,TTGGTTTGTC,0.99 ± 0.037
4,GGGTAGGTGC,1.13 ± 0.044
5,TCGGCGTAAG,0.998 ± 0.03
6,CAGAAAAAAT,0.978 ± 0.038
7,GTCTGTGGGT,0.972 ± 0.06
8,TTGGGGGTAT,1.05 ± 0.068
9,TCACGAGGCT,1.038 ± 0.0097
10,GCCAATTAAT,1.01 ± 0.012
11,ACCTGGGGAT,1.028 ± 0.0099
12,TCATGGAGAT,0.965 ± 0.033
13,TTGTTGCAAG,1.013 ± 0.0079
14,TAGCGGGGCT,1.04 ± 0.043
15,GAAAAAAAGA,1 ± 0.021
16,GGGGGTGGAC,1.01 ± 0.052
17,GACCAGCCCC,1.31 ± 0.098
18,GCCTACGGCC,1.004 ± 0.0021
19,AGAGTAAAGC,0.996 ± 0.02
20,TGTTGGGAGG,0.969 ± 0.017
21,CTTGGGGGAA,0.964 ± 0.013
22,TGTGTATTGT,0.985 ± 0.031
23,AGTTTGAGGA,1.01 ± 0.014

row,Sequence,switch fluorescence ratio
1,GAGACGGGTG,1.01 ± 0.031
2,TATGAAGTTG,0.985 ± 0.015
3,CAGGGTTTTT,0.999 ± 0.017
4,AGGCTCTTTG,1.01 ± 0.04
5,ATTACTGTGT,0.99 ± 0.02
6,AGCTACGTCG,0.942 ± 0.034
7,AGGGGACGGC,1.04 ± 0.0085
8,GTAATTATGT,1.02 ± 0.016
9,TTCAGAGGGG,0.997 ± 0.033
10,GACCAATATT,1.134 ± 0.0034
11,CGCTAGGGGG,1.06 ± 0.026
12,AATTGGGCTA,0.9994 ± 0.0056
13,TATCACAGTT,1.01 ± 0.035
14,GCTGGAGGGT,0.997 ± 0.019
15,AAGAGGGCAT,1.01 ± 0.022
16,AGGCGGATGG,0.9853 ± 0.0062
17,GAGTCAATAG,2.98 ± 0.047
18,TATGGTTTGG,0.987 ± 0.028
19,TTTATTATGA,1.01 ± 0.026
20,TTTTTCTCTT,0.996 ± 0.021
21,CTCGAGGGTA,1 ± 0.022
22,AGGGCTAAGG,0.9995 ± 0.0034
23,ATGGTCTGGG,0.971 ± 0.011

row,Sequence,switch fluorescence ratio
1,CCTTGTTTGG,1.01 ± 0.011
2,GCTTCCTTGG,1.31 ± 0.079
3,CCGGAGATCC,2.06 ± 0.22
4,AGAATGATTA,0.986 ± 0.01
5,TTAAGTGTTT,1 ± 0.022
6,CCTTGGGTTT,1.08 ± 0.13
7,GACATAAAGT,0.986 ± 0.014
8,CCTTTCTATT,0.99 ± 0.018
9,TGTCCAGCTC,1.49 ± 0.65
10,GTCACCGACT,1 ± 0.013
11,TTCGTTTGGG,0.967 ± 0.047
12,GGAATTGTTT,0.974 ± 0.048
13,AAATTCGCGT,1.01 ± 0.015
14,TAAAGAGGGT,1 ± 0.033
15,TATTCGGTTT,0.9889 ± 0.0048
16,TAACAATTCC,1.26 ± 0.013
17,GGGAGACAGA,0.957 ± 0.074
18,GTAAAAGTTG,1 ± 0.026
19,TTGGGGAGGA,0.998 ± 0.044
20,TATTTAAGGT,1 ± 0.02
21,ATATGTATGG,0.968 ± 0.011
22,TAAATGCGGG,0.975 ± 0.039
23,ATCCTAAGGC,1 ± 0.029

row,Sequence,switch fluorescence ratio
1,GGGTATCTTG,1 ± 0.003
2,TGGAGTTTGG,1.15 ± 0.19
3,AGTGATGTTC,0.976 ± 0.016
4,CGGAATGTTT,1.05 ± 0.057
5,TGGGTCATGA,1.03 ± 0.034
6,GGGGTGGTTT,0.951 ± 0.037
7,AAAAGCTTAT,1.05 ± 0.03
8,CAGAAGGGTT,0.997 ± 0.038
9,TGATTGTGGC,0.9557 ± 0.0095
10,GATGTCACGA,1.03 ± 0.028
11,AGTTTAACTA,1 ± 0.025
12,GGGTGGGCTT,0.997 ± 0.032
13,ATATGTGCCA,0.98 ± 0.02
14,TTTTAACCCT,0.998 ± 0.013
15,ATAGAAATTG,1.01 ± 0.035
16,TGTTCAGACG,1.03 ± 0.053
17,CCGTTGGTTT,0.9937 ± 0.0088
18,CCGGGGTGTA,1.32 ± 0.36
19,GATTGGTGCG,0.976 ± 0.015
20,GACGACGACA,2.5 ± 0.092
21,CGAATGGCGT,1.029 ± 0.0063
22,GCGGGGTACT,1.11 ± 0.055
23,TAGTAGTGAG,0.985 ± 0.013

row,Sequence,switch fluorescence ratio
1,GAGGGATGGT,1.01 ± 0.029
2,TATAGGTTT,1.01 ± 0.02
3,GTTAGTACGG,0.9819 ± 0.0036
4,AGGTTTGGGT,0.998 ± 0.026
5,TCCACGGGTA,1.08 ± 0.068
6,GTGTGGCACT,0.9989 ± 0.0056
7,CGGGGGTAG,0.9982 ± 0.0021
8,TAGGTTTGGT,1.018 ± 0.0063
9,TGATAATCTT,0.99 ± 0.028
10,ATCGACTTTT,1.015 ± 0.003
11,TTCCACATTT,1.12 ± 0.16
12,AAGTGGCTGG,0.991 ± 0.038
13,TGGGGGGGTG,1.01 ± 0.033
14,GGCGGGATAT,1.01 ± 0.032
15,TCGAAGTCAG,1.06 ± 0.044
16,TAGGGAGGTG,1.04 ± 0.053
17,TTTTTAATGA,1.02 ± 0.052
18,GAAATAATGG,1.03 ± 0.041
19,GGTTTATCGT,0.974 ± 0.022
